According to patent US20220031857A1 (OSSIANIX, published 2022):

T1: recombinant mouse TfR2 (mouse, UniProt Q9JKX3 103-798, limits assumed)
T1 construct: Negative control protein
T1 sequence (looked up): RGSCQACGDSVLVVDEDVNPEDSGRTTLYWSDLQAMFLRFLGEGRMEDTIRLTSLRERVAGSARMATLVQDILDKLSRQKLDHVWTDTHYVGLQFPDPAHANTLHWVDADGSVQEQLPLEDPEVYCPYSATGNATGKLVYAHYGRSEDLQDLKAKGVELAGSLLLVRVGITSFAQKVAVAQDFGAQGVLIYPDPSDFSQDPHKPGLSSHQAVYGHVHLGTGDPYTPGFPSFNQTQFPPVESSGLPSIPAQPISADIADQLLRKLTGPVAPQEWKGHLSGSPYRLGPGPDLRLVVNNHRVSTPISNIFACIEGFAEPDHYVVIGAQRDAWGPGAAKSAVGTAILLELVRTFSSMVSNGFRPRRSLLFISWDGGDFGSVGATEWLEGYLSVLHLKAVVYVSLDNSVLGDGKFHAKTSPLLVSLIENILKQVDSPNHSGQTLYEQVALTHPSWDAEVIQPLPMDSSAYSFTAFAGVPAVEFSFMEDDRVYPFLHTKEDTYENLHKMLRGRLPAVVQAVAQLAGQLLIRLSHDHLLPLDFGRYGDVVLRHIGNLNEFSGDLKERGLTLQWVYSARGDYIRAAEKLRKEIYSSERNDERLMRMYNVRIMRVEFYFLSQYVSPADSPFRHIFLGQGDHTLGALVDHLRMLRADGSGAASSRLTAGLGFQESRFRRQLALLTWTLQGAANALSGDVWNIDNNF

B1: SEQ ID NO 20 (VNAR clone displayed on phage) (VNAR)
VNAR: ARVDQTPQTITKETGESLTINCVLRDSNCALPSTYWYRKKSGSTNEESISKGGRYVETVNSGSKSFSLRINDLTVEDSGTYRCNVYTSYCCSVADVYGGGTAVTVNA
notes: shark VNAR domain on M13 phage; coat-protein fusion not described
B2: SEQ ID NO 13 (VNAR clone displayed on phage) (VNAR)
VNAR: ARVDQTPQTITKETGESLTINCVLRDSNCALPSTYRYRKKSGSTNEESISKGGRYVETVNSGSKSFSLRINDLTVEDSGTYRCKVTMVRGRGCYQPARGQDVYGGGTAVTVNA
notes: as for B1
B3: SEQ ID NO 34 (VNAR clone displayed on phage) (VNAR)
VNAR: ARVDQTPQTITKETGESLTINCVLRDSNCDLSRTYWYRKKSGSTNEESISKGGRYVETVNSGSKSFSLRINDLVVEDSGTYRCNVAVFTRCHNQQDVYGGGTAVTVNA
notes: as for B1
B4: SEQ ID NO 19 (VNAR clone displayed on phage) (VNAR)
VNAR: ARVDQTPQTITKETGESLTINCVLRDSNCALPSTYWYRKKSGSTNEESISKGGRYVETVNSGSKSFSLRINDLTVEDSGTYRCNVGWSTQYYCVLPDVYGGGTAVTVNA
notes: as for B1
B5: SEQ ID NO 32 (VNAR clone displayed on phage) (VNAR)
VNAR: ARVDQTPQTITKETGESLTINCVLRDSNCALSNLYWYRKKSGSRNEESISKGGRYVETVNSGSKSFSLKINDLTVEDSGTYRCKVFGMRTHCQWVIYRITDVYGGGTAVTVNA
notes: as for B1
B6: SEQ ID NO 31 (VNAR clone displayed on phage) (VNAR)
VNAR: ARVDQTPQTITKETGESLTINCVLRDSNCDLSRTYWYRKKSGSTNEESISKGGRYVETVNSGSKSFSLKINDLTVEDSGTYRCNVFLWNNYNPMDVYGGGTAVTVNA
notes: as for B1
B7: SEQ ID NO 23 (VNAR clone displayed on phage) (VNAR)
VNAR: ARVDQTPQTITKETGESLTINCVLRDSNCALSNLYWYRKKSGSTNEESISKGGRYVETVNSGSKSFSLRINDLTVEDSGTYRCNVINFFAMECEYQVGDVYGDGTAVTVNA
notes: as for B1
B8: SEQ ID NO 17 (VNAR clone displayed on phage) (VNAR)
VNAR: ARVDQTPQTITKETGESLTINCVLRDSNCALPSTYWYRKKSGSTNEESISKGGRYVETVNSGSKSFSLRINDLTVKDSGTYRCNVARHWTQSCAYHRDVYGGGTAVTVNA
notes: as for B1
B9: SEQ ID NO 25 (VNAR clone displayed on phage) (VNAR)
VNAR: ARVDQTPQTITKETGESLTINCVLRDSNCALSNLYWYRKKSGSTNEESISLGGRYVETVNSGSKSFSLRINDLTVEDSGTYRCNVCLLQLAGYDSPYDVYGGGTAVTVNA
notes: as for B1
B10: SEQ ID NO 30 (VNAR clone displayed on phage) (VNAR)
VNAR: ARVDQTPQTITKETGESLTINCVLRDSNCALSNLYWYRKKSGSTNEESISLGGRYVETVNSGSKSFSLRINDLTVEDSGTYRCNVCQWLQWYGGEMEDVYGGGTAVTVNA
notes: as for B1
B11: SEQ ID NO 28 (VNAR clone displayed on phage) (VNAR)
VNAR: ARVDQTPQTITKETGESLTINCVLRDSNCALSNLYWYRKKSGSTNEESISLGGRYVETVNSGSKSFSLRINDLTVKDSGTYRCNVFSFSCQLLFDVYGGGTAVTVNA
notes: as for B1
B12: SEQ ID NO 14 (VNAR clone displayed on phage) (VNAR)
VNAR: ARVDQTPQTITKETGESLTINCVLRDSNCALPSTYWYRKKSGSTNEESISKGGRYVETVNSGSKSFSLRINDLTVEDSGTYRCKVTFSAFEYCYVFKVQCDVYGDGTAVTVNA
notes: as for B1
B13: SEQ ID NO 15 (VNAR clone displayed on phage) (VNAR)
VNAR: ARVDQTPQTITKETGESLTINCVLRDSNCALPSTYWYCKKSGSTNEESISKGGRYVETVNSGSKSFSLRINDLTVKDSGTYRCKVHVRAQSLCCQCWYGDVYGDGTAVTVNA
notes: as for B1
B14: SEQ ID NO 29 (VNAR clone displayed on phage) (VNAR)
VNAR: ARVDQTPQTITKETGESLTINCVLRDSNCALSNLYWYRKKSGSTNEESISLGGRYVETVNSGSKSFSLRINDLTVEDSGTYRCKVSTSVPRHYDNCRQRRHDVYGGGTAVTVNA
notes: as for B1
B15: SEQ ID NO 33 (VNAR clone displayed on phage) (VNAR)
VNAR: ARVDQTPQTITKETGESLTINCVLRDSNCDLSRTYWYRKKQGSTNEESISKGGRYVETVNSGSKSFSLRINDLTVEDSGTYRCNVALYHFTGCSRVQDVYGGGTVVTVNA
notes: as for B1
B16: SEQ ID NO 22 (VNAR clone displayed on phage) (VNAR)
VNAR: ARVDQTPQTITKETGESLTINCVLRDSNCALSSTYWYRKKSDSTNEESISKGGRYVETVNSGSKSFSLRINDLTVEDSGTYRCKVHSFNMDVCAEFQYSDVYGDGTAVTVNA
notes: as for B1
B17: SEQ ID NO 24 (VNAR clone displayed on phage) (VNAR)
VNAR: ARVDQTPQTITKETGESLTINCVLRDSNCALSNLYWYRKKSGSTNEESISKGGRYVETVNSGSKSFSLRINDLTVKDSGTYRCNVLVSMFCQLAQDVYGDGTAVTVNA
notes: as for B1
B18: SEQ ID NO 26 (VNAR clone displayed on phage) (VNAR)
VNAR: ARVDQTPQTITKETGESLTINCVLRDSNCALSNLYWYRKKSGSTNEENISKGGRYVETVNSGSKSFSLRINDLTVEDSGTYRCNVDVTRCTQSQDVYGGGTAVTVNA
notes: as for B1
B19: SEQ ID NO 27 (VNAR clone displayed on phage) (VNAR)
VNAR: ARVDQTPQTVTKETGESLTINCVLRDSNCALSNLYWYRKKSGSTNEESISLGGRYVETVNSGSKSFSLRINDLTVEDSGTYRCNVKHYVCMQSKDVYGGGTVVTVNA
notes: as for B1
B20: SEQ ID NO 35 (VNAR clone displayed on phage) (VNAR)
VNAR: ARVDQTPQTITKETGESLTINCVLRDSNCDLSRTYWYRKKSGSTNEESISKGGRYVETVNSGSKSFSLRINDLTVEDSGTYRCNVTWLDCHQCGASDVYGGGTVVTVNA
notes: as for B1
B21: SEQ ID NO 21 (VNAR clone displayed on phage) (VNAR)
VNAR: ARVDQTPQTITKETGESLTINCVLRDSNCALSSTYWYRKKSGSTNEESISKGGRYVETVNSGSKSFSLRINDLTVEDSGTYRCKVLTSQSQGGCVRVLYSDVYGDGTAVTVNA
notes: as for B1
B22: SEQ ID NO 18 (VNAR clone displayed on phage) (VNAR)
VNAR: ARVDQTPQTITKETGESLTINCVLRDSNCALPSTYWYRKKSGSTNEESISKGGRYVETVNSGSKSFSLRINDLTVKDSGTYRCNVQHIFQHNCYWFLYDVYGGGTAVTVNA
notes: as for B1

Legend:
Assay in all cases: phage ELISA
[1] = target: T2, recombinant human TfR1 (transferrin receptor 1) (human, UniProt P02786 89-760)
T2 construct: Bought recombinant His-tagged protein; also called hTfR1

[2] = target: T3, recombinant mouse TfR1 (transferrin receptor 1) (mouse, UniProt Q62351 89-763)
T3 construct: Bought recombinant His-tagged protein; also called mTfR1

[3] = target: T1, recombinant mouse TfR2

T2 sequence (P02786 89-760 limits assumed): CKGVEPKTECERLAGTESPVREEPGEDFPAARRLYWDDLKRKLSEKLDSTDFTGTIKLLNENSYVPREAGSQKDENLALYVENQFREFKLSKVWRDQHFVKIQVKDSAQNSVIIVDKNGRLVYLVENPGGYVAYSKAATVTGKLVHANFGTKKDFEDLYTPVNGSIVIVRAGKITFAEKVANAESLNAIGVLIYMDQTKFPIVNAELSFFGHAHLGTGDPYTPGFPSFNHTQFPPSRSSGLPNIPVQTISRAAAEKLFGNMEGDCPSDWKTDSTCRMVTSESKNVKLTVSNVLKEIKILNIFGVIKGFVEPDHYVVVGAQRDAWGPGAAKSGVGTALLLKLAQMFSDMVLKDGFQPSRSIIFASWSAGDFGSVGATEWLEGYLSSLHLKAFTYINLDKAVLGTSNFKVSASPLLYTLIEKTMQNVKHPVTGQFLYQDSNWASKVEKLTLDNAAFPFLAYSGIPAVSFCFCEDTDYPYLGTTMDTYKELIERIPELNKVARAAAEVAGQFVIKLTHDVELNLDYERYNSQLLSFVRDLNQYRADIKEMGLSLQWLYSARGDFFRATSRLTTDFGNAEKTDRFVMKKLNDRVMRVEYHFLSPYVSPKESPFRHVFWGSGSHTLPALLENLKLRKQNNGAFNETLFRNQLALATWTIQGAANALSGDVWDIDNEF
T3 sequence (Q62351 89-763 limits assumed): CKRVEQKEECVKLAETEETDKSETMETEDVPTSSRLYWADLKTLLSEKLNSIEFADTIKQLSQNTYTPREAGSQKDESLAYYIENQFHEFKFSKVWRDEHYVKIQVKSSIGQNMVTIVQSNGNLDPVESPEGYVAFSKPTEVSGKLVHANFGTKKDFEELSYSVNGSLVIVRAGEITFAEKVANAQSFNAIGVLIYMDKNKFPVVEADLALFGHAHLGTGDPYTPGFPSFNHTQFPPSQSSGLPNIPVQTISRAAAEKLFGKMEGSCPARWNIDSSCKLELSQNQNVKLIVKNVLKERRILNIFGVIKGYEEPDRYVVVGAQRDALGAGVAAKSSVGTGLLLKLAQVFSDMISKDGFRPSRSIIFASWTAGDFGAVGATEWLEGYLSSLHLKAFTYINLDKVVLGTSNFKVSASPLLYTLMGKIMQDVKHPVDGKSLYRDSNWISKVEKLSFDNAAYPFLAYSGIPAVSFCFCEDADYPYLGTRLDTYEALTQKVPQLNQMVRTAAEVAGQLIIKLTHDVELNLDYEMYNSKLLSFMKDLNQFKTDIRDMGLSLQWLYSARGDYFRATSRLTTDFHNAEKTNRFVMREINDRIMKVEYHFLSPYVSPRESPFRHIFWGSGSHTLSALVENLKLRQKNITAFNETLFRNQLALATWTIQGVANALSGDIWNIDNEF

Binder | binding result [1] | binding result [2] | binding result [3]
B1 | binds | binds | –
B2 | binds | binds | –
B3 | binds | binds | no binding
B4 | binds | binds | –
B5 | binds | binds | no binding
B6 | binds | binds | –
B7 | binds | binds | –
B8 | binds | binds | –
B9 | binds | binds | –
B10 | binds | binds | –
B11 | binds | binds | –
B12 | binds | binds | –
B13 | binds | binds | –
B14 | binds | binds | –
B15 | binds | binds | no binding
B16 | binds | binds | –
B17 | binds | binds | –
B18 | binds | binds | –
B19 | binds | binds | –
B20 | binds | binds | no binding
B21 | binds | binds | –
B22 | binds | binds | –
